Test results: article PMC5412023

Key:
GST-TET2 CR W1291R = GST-TET2 CR W1291R (UniProt Q6N021); experiment: MST; microscale thermophoresis, Monolith NT.115, analysed by PRISM; biotinylated histone H3 peptides with GST-TET2 CR wild type or W1291R
[1] = biological target: GST-TET2 CR (cysteine-rich domain of TET2, residues 1129-1322, fused to glutathione S-transferase), wild type (UniProt Q6N021); experiment: as above
[2] = biological target: GST-TET2 CR (cysteine-rich domain of TET2, residues 1129-1322, fused to glutathione S-transferase), wild type (UniProt Q6N021); experiment: MST; microscale thermophoresis, Monolith NT.115, analysed by PRISM; mononucleosome binding to the wild-type CR domain

Substance	Kd (GST-TET2 CR W1291R)	Kd [1]	Kd [2]
histone H3_(21-44) K36me1 peptide (from UniProt P68431 22-45)	11000 nM	688 nM	
mononucleosome (complex)			387 nM
histone H3_(21-44) K36me2 peptide (from UniProt P68431 22-45)	27500 nM	734 nM	
histone H3_(21-44) unmodified peptide (from UniProt P68431 22-45)	946 nM	21000 nM	
